Measured values taken from patent publication US6649364.

Key:
[1] = target: α-actin purified from rabbit skeletal muscle, globular (G-actin) form (UniProt P68135)
[2] = target: DNase I (Sigma, St. Louis, Mo.); experiment: cell-based or functional assay

| DNase I digestion of plasmid DNA (agarose gel): level of inhibition against diluted intact actin [2] | DNase I digestion of plasmid DNA (agarose gel): reduction in DNase I inhibition [2] | Substance | DNase I digestion of plasmid DNA (agarose gel) [1] |
| --- | --- | --- | --- |
|  |  | DNase I (Sigma, St. Louis, Mo.) | preincubation of DNase I with intact actin (1.5 µg) for 5 minutes markedly reduced its ability to digest the plasmid |
| 5 fold | 80% | actin cleaved for 90 minutes by ICE |  |
